This is an account of results in publication PMC6625726, “A polymorphic helix of a Salmonella needle protein relays signals defining distinct steps in type III secretion” (PLoS Biology, 2019).

To fix the notation:
B1: PrgI^Q77R, recombinant (natural protein, Salmonella enterica serovar Typhimurium, UniProt P41784 1-80, looked up)
chain: MATPWSGYLDDVSAKFDTGVDNLQTQVTEALDKLAAKPSDPALLAAYQSKLSEYNLYRNAQSNTVKVFKDIDAAIIRNFR
notes: needle filament protein PrgI of the SPI-1 T3SS, 80 amino acids; used for solid-state NMR; not shown: His6, N-terminal, cleaved
B2: PrgI^V20A, recombinant (natural protein, Salmonella enterica serovar Typhimurium, UniProt P41784 1-80, looked up)
chain: MATPWSGYLDDVSAKFDTGADNLQTQVTEALDKLAAKPSDPALLAAYQSKLSEYNLYRNAQSNTVKVFKDIDAAIIQNFR
notes: as for B1
B3: PrgI^R58A, recombinant (natural protein, Salmonella enterica serovar Typhimurium, UniProt P41784 1-80, looked up)
chain: MATPWSGYLDDVSAKFDTGVDNLQTQVTEALDKLAAKPSDPALLAAYQSKLSEYNLYANAQSNTVKVFKDIDAAIIQNFR
notes: as for B1
B4: PrgI, wild type, in S. Typhimurium (natural protein)
chain: MATPWSGYLDDVSAKFDTGVDNLQTQVTEALDKLAAKPSDPALLAAYQSKLSEYNLYRNAQSNTVKVFKDIDAAIIQNFR
notes: needle filament protein PrgI of the SPI-1 T3SS, 80 amino acids; assembled in vivo into the needle filament of the injectisome; also called WT PrgI; needle filament; source: S. Typhimurium ΔprgI ΔprgJ, from the low-copy plasmid pWSK29 (with prgJ); or chromosomal in wild-type and ΔsipD strains
B5: PrgI, wild type, recombinant (natural protein)
chain: MATPWSGYLDDVSAKFDTGVDNLQTQVTEALDKLAAKPSDPALLAAYQSKLSEYNLYRNAQSNTVKVFKDIDAAIIQNFR
notes: needle filament protein PrgI of the SPI-1 T3SS, 80 amino acids; pET15b, thrombin-cleavable tag; polymerised in vitro into filaments; also called PrgI^WT; WT PrgI; not shown: His6, N-terminal, cleaved
B6: PrgI^K66E, recombinant (natural protein, Salmonella enterica serovar Typhimurium, UniProt P41784 1-80, looked up)
chain: MATPWSGYLDDVSAKFDTGVDNLQTQVTEALDKLAAKPSDPALLAAYQSKLSEYNLYRNAQSNTVEVFKDIDAAIIQNFR
notes: needle filament protein PrgI of the SPI-1 T3SS, 80 amino acids; not shown: His6, N-terminal, cleaved
B7: PrgI^L31A, recombinant (natural protein, Salmonella enterica serovar Typhimurium, UniProt P41784 1-80, looked up)
chain: MATPWSGYLDDVSAKFDTGVDNLQTQVTEAADKLAAKPSDPALLAAYQSKLSEYNLYRNAQSNTVKVFKDIDAAIIQNFR
notes: as for B6
B8: PrgI^D70K, recombinant (natural protein, Salmonella enterica serovar Typhimurium, UniProt P41784 1-80, looked up)
chain: MATPWSGYLDDVSAKFDTGVDNLQTQVTEALDKLAAKPSDPALLAAYQSKLSEYNLYRNAQSNTVKVFKKIDAAIIQNFR
notes: as for B6
B9: PrgI^T3A, recombinant (natural protein, Salmonella enterica serovar Typhimurium, UniProt P41784 1-80, looked up)
chain: MAAPWSGYLDDVSAKFDTGVDNLQTQVTEALDKLAAKPSDPALLAAYQSKLSEYNLYRNAQSNTVKVFKDIDAAIIQNFR
notes: as for B6
B10: PrgI^L9A, recombinant (natural protein, Salmonella enterica serovar Typhimurium, UniProt P41784 1-80, looked up)
chain: MATPWSGYADDVSAKFDTGVDNLQTQVTEALDKLAAKPSDPALLAAYQSKLSEYNLYRNAQSNTVKVFKDIDAAIIQNFR
notes: as for B6
B11: PrgI^F16A, recombinant (natural protein, Salmonella enterica serovar Typhimurium, UniProt P41784 1-80, looked up)
chain: MATPWSGYLDDVSAKADTGVDNLQTQVTEALDKLAAKPSDPALLAAYQSKLSEYNLYRNAQSNTVKVFKDIDAAIIQNFR
notes: as for B6
B12: PrgI^L56A, recombinant (natural protein, Salmonella enterica serovar Typhimurium, UniProt P41784 1-80, looked up)
chain: MATPWSGYLDDVSAKFDTGVDNLQTQVTEALDKLAAKPSDPALLAAYQSKLSEYNAYRNAQSNTVKVFKDIDAAIIQNFR
notes: as for B6
B13: PrgI^V67A, recombinant (natural protein, Salmonella enterica serovar Typhimurium, UniProt P41784 1-80, looked up)
chain: MATPWSGYLDDVSAKFDTGVDNLQTQVTEALDKLAAKPSDPALLAAYQSKLSEYNLYRNAQSNTVKAFKDIDAAIIQNFR
notes: as for B6
B14: PrgI^S49A, recombinant (natural protein, Salmonella enterica serovar Typhimurium, UniProt P41784 1-80, looked up)
chain: MATPWSGYLDDVSAKFDTGVDNLQTQVTEALDKLAAKPSDPALLAAYQAKLSEYNLYRNAQSNTVKVFKDIDAAIIQNFR
notes: as for B6

The first data set concerns the molecule itself. The data set is described as follows: solid-state NMR of filaments; magic-angle spinning, 800 MHz, 11 kHz, approximately 278 K; 13C-detected 1D and 2D spectra of needle filaments.
For B1, the binding result is “binds”. For B2, the binding result is reported as “binds”. On the same count and under the same terms, the entry for B3 is “binds”.

Another data set deals with the molecule itself. The data set is described as follows: cryo-EM structure; needle filaments boxed out from fully assembled needle complexes isolated by affinity chromatography (in vivo assembled, attached to the base); helical reconstruction.
For B4, the binding result is “binds”.

The next data set concerns the molecule itself. The data set is described as follows: in vitro polymerization seen by negative-stain electron microscopy; His-tag cleaved with thrombin; concentrated to approximately 1 mg/ml in 20 mM MES, pH 5.5, overnight at room temperature; 2% phosphotungstic acid stain.
With B5, the binding result is given as “binds”. With B6, the binding result was “binds”.

For B7, the binding result is “binds”. Still for that read-out and setting: with B8 the entry was “binds”; with B9, “binds”. For B10, the binding result is “binds”. Same read-out and setting: with B11 the entry was “binds”; with B12, “binds”.

The next data set concerns the molecule itself. The data set is described as follows: cryo-EM structure; filaments polymerized in vitro from purified protein, sonicated; helical reconstruction.
As to B13, the binding result is reported as “binds”.

For the protein B14, the binding result is on record as “binds”.
